We go through 23 molecules from patent publication US20130109581A1, “POSITIVELY CHARGED SPECIES AS BINDING REAGENTS IN THE SEPARATION OF PROTEIN AGGREGATES FROM MONOMERS” (priority 2009, published 2013).

Like-named read-outs stand apart in the source and are kept apart here. Where no end group is shown, it is not given here. [ ]: non-standard residue; d: D form. Ahx = NCCCCCC(=O)O

Holding throughout (format): binding
One test concerns the target T1, normal CSF Aβ42 (Homo sapiens, UniProt P05067).
T1 construct: reduced the detection of normal CSF Aβ42 to the background levels; from tissue; host or cells: pooled normal cerebrospinal fluid
The test is described as follows: NMPA with detergent washing: background from unspiked CSF, Abeta42. Conditions: CSF; PSR1 beads treated with detergent post capture. Here is the method: Second, two neutral detergents, polyethylene glycol sorbitan monolaurate (available as TWEEN 20 from Sigma-Aldrich, St. Louis, Mo.) and n-tetradecyl-N,N-dimethyl-3-ammonio-1-propanesulfonate (available as ZWITTERGENT 3-14 from EMI) Chemicals, Gibbstown, N.J.) were used to treat the globulomer-spiked CSF samples that had been contacted with PSR1 beads. For each assay, a mixture of 30 μl of PSR1 beads (coated at about 7-12 nmol PSR1 ligand/mg DYNAL beads, which were used in this example and in the following examples unless otherwise stated) and 70 μl of 1×TBSTT was immediately pipetted into each well on the pulldown plate. The liquid was removed on a magnetic separator. Fifty micro liters of 5×TBSTT was added to each well. The beads were suspended by briefly shaking at 750 rpm. Next […] of TBSTT or CSF sample without globulomer was added to each well. The pulldown plate was sealed and incubated at 37° C. for 1 hour with shaking at 500 rpm. After incubation, the beads were washed 8 times with TBST on the plate washer. After the plate wash, residual TBST buffer was removed from the beads on the magnetic separator. The beads were then incubated with 100 μl of either TBS, 1% Tween20 or 1% Zwittergent 3-14 for 30 minutes at room temperature at 750 rpm, (followed by an additional 8 washes with TBST on the plate washer. After removing residual TBST on the magnetic separator, 20 μl of denaturing solution, typically 0.1-0.15 N NaOH, was added to the beads. The plate was covered with an aluminum foil plate sealer and incubated at 80° C. for 30 minutes with shaking at 750 rpm. After incubation, the plate was cooled to room temperature and twenty micro liters of neutralizing solution, typically 0.12-0.18 M NaH2PO4+0.4% Tween20) was added into each well and the plate was incubated at room temperature for 5 minutes with shaking at 750 rpm. […] MSD Abeta Triplex Assay was preformed according to the manufacturer's instructions.
A summary of the assay results and calculated signal/noise is shown below in Table 17.

For a further test, the target named is Abeta 42 globulomer (Homo sapiens, UniProt P05067). The test is described as follows: NMPA with detergent washing after PSR1 pulldown: globulomer detection.
The target in the next test is T2, Abeta 1-42 globulomer (Homo sapiens, UniProt P05067).
T2 construct: beta amyloid (1-42) was monomerized with incubation in hexafluoroisopropanol
The test is described as follows: Globulomer capture assay in CSF (Example 6). Conditions: for 42:40 (signal:noise ratio): 1 ng/ml average reading, ratio of 42 to 40; for 42, 1 ng/ml average reading: Abeta 1-42 globulomer spiked at 1 ng/mL into CSF; for globulomer capture: Abeta42 globulomer spiked into CSF, reagents on beads. Here is the method:
(§1) A series of new potential aggregate-specific binding reagents were designed as shown below and conjugated onto magnetic Dynal M270 beads as described in Example 2. Typically 7-12 nmol of ligand (each candidate aggregate-specific binding reagent) was coated onto 1 mg of beads.
(§2) Aliquots of the beads (typically 3 ul) were added to wells of a 96 well plate, followed by sample (with or without Abeta 1-42 globulomer (an Abeta42 oligomer model) spiked in 80:20 CSF:TBSTT, typically 125 ul). The plate was sealed and incubated for 1 hour at 37° C. with shaking. The plate was washed with aqueous solutions of detergent (typically polyethylene glycol sorbitan monolaurate and n-tetradecyl-N,N-dimethyl-3-ammonio-1-propanesulfonate) to remove ubound material and the residual buffer removed. A denaturing solution (typically 0.1-0.15 N NaOH) was added to each well and the plate heated to 80° C. for 30 min with shaking. After cooling the plate to room temperature, a neutralizing buffer (typically 0.12-0.18 M NaH2PO3 in 0.4% TWEEN20,) was added and the plate was shaken briefly at room temperature. The bead eluate was analyzed using either an Aβ42-specific ELISA or the MSD® 96-Well MULTI-SPOT® Human/Rodent [4G8] Abeta Triplex Ultra-Sensitive Assay from Meso Scale Discovery (Gaithersburg, Md.). For the Aβ42-specific assay, the samples were eluted from the beads and a detection antibody (4G8 HRP) was added to a plate bearing the Aβ42-specific antibody 12F4. The plate was incubated for 1 hour, washed, the substrate was added (SuperSignal West Femto Maximum Sensitivity Substrate from Thermo Fisher, Rockville, Md.), and the luminescence was measured. The MSD plate assay was performed in a similar fashion, according to the manufacturer's protocol.
(§3) In this experiment the preferred number of charges within a given scaffold was identified. An Ala/Lys peptide framework was utilized, where the inclusion of each Lys residue increases the peptides' net charge by +1. Six hexapeptides with increasing charge (+1→+6), AAAKAA, AAKKAA, AAKKKA, AKKKKA, AKKKKK, and KKKKKK, were prepared and conjugated on the beads. The ability of these beads to capture Abeta 1-42 globulomer spiked at 1 ng/mL into CSF was tested, and the result is shown in FIG. 25. The globulomer capture level (“42 1 ng/ml” or the closed bars) was compared to the background signal of Abeta 1-42 detected in the unspiked CSF (“42 0 ng/ml”) and the background signal of Abeta 1-40 detected in unspiked CSF (“40 0 ng/ml”) or CSF spiked with AB42 oligomers “40 1 ng/ml”. The charge density, as conjugated to the magnetic beads, of each reagent evaluated in this experiment is shown below in Table 8.

A further test concerns the target T3, Abeta 1-40 monomer (Homo sapiens, UniProt P05067).
T3 construct: Abeta 1-40 monomer capture level; from tissue; host or cells: cerebrospinal fluid (matrix of the assay)
Nature of the test: Globulomer capture assay in CSF (Example 6): Abeta 1-40 noise. Conditions: for 40, 1 ng/ml average reading: Abeta 1-40 signal (noise), CSF samples; for background monomeric Abeta capture (noise): CSF. Here is the method:
as §1, §2, §3

Turning to `CCCCCCCCCCCCCC(=O)NCCC[N+](C)(C)CCCS(=O)(=O)[O-]` [ASB-14, Amidosulfobetaine-14,3-[N,N-Dimethyl(3-myristoylaminopropyl)ammonio]propanesulfonate], the “Abeta 42 RLU, 0 ng/mL Abeta 42 globulomer, Average” value at normal CSF Aβ42 was found to be 89.7 RLU. Also, at Abeta 42 globulomer, the “Abeta 42 RLU, 0.5 ng/mL Abeta 42 globulomer, Average” value worked out at 779.3 RLU; the “S/N Abeta 42 globulomer-spiked/Abeta 40” value came to 2.0; the “S/N Abeta 42 globulomer-spiked/unspiked” value amounted to 8.7.
For `CCCCCCCCCCCCCCCC(=O)NCCC[N+](C)(C)CCCS(=O)(=O)[O-]` [ASB-16, Amidosulfobetain-16,3-[N,N-Dimethyl-N-(3-palmitamidopropyl)ammonio]propane-1-sulfonate] the same measures were 95.7 RLU, 788.7 RLU, 2.8 and 8.2.
`CCCCCCCCc1ccc(C(=O)NCCC[N+](C)(C)CCCS(=O)(=O)[O-])cc1` [ASB-C8phn, 4-n-Octylbenzoylamido-propyl-dimethylammonio Sulfobetaine]: the “Abeta 42 RLU, 0 ng/mL Abeta 42 globulomer, Average” value on normal CSF Aβ42 is reported as 100.7 RLU. In addition, at Abeta 42 globulomer, the “Abeta 42 RLU, 0.5 ng/mL Abeta 42 globulomer, Average” value stood at 936.3 RLU; the “S/N Abeta 42 globulomer-spiked/Abeta 40” value was found to be 1.4; the “S/N Abeta 42 globulomer-spiked/unspiked” value was determined as 9.3.
As to `CCCCCCCCCCCC[N+](C)(C)CC(=O)[O-]` [Empigen, N,N-Dimethyl-N-dodecylglycine betaine], the “Abeta 42 RLU, 0 ng/mL Abeta 42 globulomer, Average” value at normal CSF Aβ42 was 76.7 RLU. Besides, on Abeta 42 globulomer (0.5 ng/mL vs 0 ng/mL globulomer), the “S/N Abeta 42 globulomer-spiked/unspiked” value is on record as 8.7. Also, the “S/N Abeta 42 globulomer-spiked/Abeta 40” value on Abeta 42 globulomer (Abeta 42 RLU at 0.5 ng/mL over average Abeta 40 RLU) is 2.6. Also, the “Abeta 42 RLU, 0.5 ng/mL Abeta 42 globulomer, Average” value on Abeta 42 globulomer (CSF, PSR1 beads treated with detergent post capture) turned out to be 670.3 RLU.
In the case of AAAKAA, in the test with Abeta 1-42 globulomer, the “42:40 (signal:noise ratio)” value is 0.8 and the “42, 1 ng/ml average reading” value is 113.5 RLUs. In addition, in the test with Abeta 1-40 monomer, the “40, 1 ng/ml average reading” value came to 134.5 RLUs.
As for AAKKAA, in the test with Abeta 1-42 globulomer, the “42:40 (signal:noise ratio)” value is given as 1.1 and the “42, 1 ng/ml average reading” value stood at 159.5 RLUs. The “40, 1 ng/ml average reading” value with Abeta 1-40 monomer is 147 RLUs.
For AAKKKA the same measures were 1.6, 247 RLUs and 159 RLUs.
For the molecule AKKKKA, in the test with Abeta 1-42 globulomer, the “42:40 (signal:noise ratio)” value came to 2.1; the “42, 1 ng/ml average reading” value was found to be 322.5 RLUs; the globulomer capture result is “significantly lower globulomer capture efficiency”. Also, the “40, 1 ng/ml average reading” value in the test with Abeta 1-40 monomer came to 155.5 RLUs.
With AKKKKK, in the test with Abeta 1-42 globulomer, the “42:40 (signal:noise ratio)” value is given as 2.5 and the “42, 1 ng/ml average reading” value was 442 RLUs. Moreover, in the test with Abeta 1-40 monomer, the “40, 1 ng/ml average reading” value is reported as 176 RLUs.
Regarding ANFFAHSS, in the test with Abeta 1-42 globulomer, the “42:40 (signal:noise ratio)” value was determined as 1.8 and the “42, 1 ng/ml average reading” value stood at 994.5 RLUs. Moreover, the “40, 1 ng/ml average reading” value in the test with Abeta 1-40 monomer was 543 RLUs.
Take “Ac-KKKFKF: acetylated KKKFKF peptide conjugated to beads with the Ahx-Ahx-Cys-NH2 linker (Ac-KKKFKF[Ahx][Ahx]C-NH2; also: conjugated to beads via the linker)”: the globulomer capture result with Abeta 1-42 globulomer is “captured globulomer specifically”.
Take DFKLNFKF: in the test with Abeta 1-42 globulomer, the “42:40 (signal:noise ratio)” value turned out to be 2 and the “42, 1 ng/ml average reading” value was 515.5 RLUs. Besides, the “40, 1 ng/ml average reading” value with Abeta 1-40 monomer is given as 259.5 RLUs.
On to F-fdb-F-fdb-fdb-fdb, for which, on Abeta 1-42 globulomer, the globulomer capture result is recorded as “more effective than the δ peptide”.
As for “FKFKKK-link: FKFKKK peptide reagent with linker to bead at the right end; charge closest to the beads (FIG. 27) (not fully specified (C-terminus); printed as FKFKKK-link; also: attached to bead through link at right end)”, in the test with Abeta 1-42 globulomer, the “42:40 (signal:noise ratio)” value stood at 5.7; the “42, 1 ng/ml average reading” value is on record as 1995 RLUs; the globulomer capture result is “significantly better than the remainder of the beads”. Besides, in the test with Abeta 1-40 monomer, the “40, 1 ng/ml average reading” value is recorded as 348 RLUs.
With FKFNLFSG, in the test with Abeta 1-42 globulomer, the “42:40 (signal:noise ratio)” value is recorded as 2.4; the “42, 1 ng/ml average reading” value is listed as 3230.5 RLUs; the globulomer capture result is recorded as “efficient at capturing globulomer”. For the same molecule, in the test with Abeta 1-40 monomer, the “40, 1 ng/ml average reading” value is on record as 1327.5 RLUs and the “background monomeric Abeta capture (noise)” value is on record as “captured significant amounts of background monomeric species”.
For FKFSLFSG the same measures were 1.5, 3078.5 RLUs, “efficient at capturing globulomer”, 2011 RLUs and “captured significant amounts of background monomeric species”.
For FoFooo, the globulomer capture result at Abeta 1-42 globulomer is “captured globulomers specifically”.
As to IRYVTHQYILWP, in the test with Abeta 1-42 globulomer, the “42:40 (signal:noise ratio)” value amounted to 3.2; the “42, 1 ng/ml average reading” value amounted to 3242 RLUs; the globulomer capture result is given as “efficient at capturing globulomer”. In the test with Abeta 1-40 monomer, the “40, 1 ng/ml average reading” value was determined as 1011.5 RLUs and the “background monomeric Abeta capture (noise)” value was “captured significant amounts of background monomeric species”.
For KFKKKF, the globulomer capture result with Abeta 1-42 globulomer is reported as “captured globulomers specifically”.
For the molecule KIGVVR, in the test with Abeta 1-42 globulomer, the globulomer capture entry is reported as “captured Abeta 1-42 globulomer at a high level that's similar to PSR1's globulomer capture level”. Moreover, the “background monomeric Abeta capture (noise)” value with Abeta 1-40 monomer is recorded as “low levels of monomeric Abeta 1-40 noise similar to PSR1's”.
On to KKFKKF, for which the globulomer capture result in the test with Abeta 1-42 globulomer is “captured globulomers specifically”.
“KKKFKF-link: KKKFKF peptide reagent with linker to bead at the right end (FIG. 27) (not fully specified (C-terminus); also: attached to bead through link at right end)”: in the test with Abeta 1-42 globulomer, the “42:40 (signal:noise ratio)” value was 3.9; the “42, 1 ng/ml average reading” value was 748 RLUs; the globulomer capture entry is given as “able to capture globulomers”. Further, the “40, 1 ng/ml average reading” value with Abeta 1-40 monomer is 191.5 RLUs.
In the case of “link-FKFKKK: FKFKKK peptide reagent with linker to bead at the left end (FIG. 27) (not fully specified (N-terminus); also: attached to bead through link at left end)”, in the test with Abeta 1-42 globulomer, the “42:40 (signal:noise ratio)” value came out at 4.1; the “42, 1 ng/ml average reading” value is 808 RLUs; the globulomer capture entry is recorded as “able to capture globulomers”. Also, in the test with Abeta 1-40 monomer, the “40, 1 ng/ml average reading” value is recorded as 198 RLUs.
